From PMC11388069

Legend:
[1] = immunoprecipitation, western blot; conditions: glycan changed form; control: parental MCF7DOX
[2] = NHS-LC-biotin labelled membranous P-gp degradation; conditions: glycan changed form; control: parental MCF7DOX
[3] = proteomics and blot of isolated microvesicles; conditions: glycan changed form; control: MCF7DOX-MVs
[4] = AHA labelling of newly synthesized P-gp; conditions: glycan changed form; control: parental MCF7DOX
[5] = immunofluorescence, plasma membrane P-gp; conditions: glycan changed form; control: parental MCF7DOX

## P-glycoprotein (P-gp, MDR1): MGAT3 overexpression
[1]
  expression_or_secretion: decreases
[2]
  degradation_or_half_life: increases
[3]
  other: recruitment into microvesicles: decreases
[4]
  other: new protein synthesis: no change
[5]
  localisation_or_trafficking: decreases
